Target: CD4-IgG (human, UniProt P01730 26-205)
Experiment: immunoaffinity chromatography of BT20 conditioned medium on CD4-IgG-Protein A precolumn, SDS-PAGE with silver staining
Description: BT20 cells were grown to 80% confluence in 150 mm plates, harvested by 5 mM EDTA in PBS, and seeded into […] roller bottles with growth medium. After 1 week of growth the cells were nearly confluent. The growth medium was removed, the cells washed with PBS, and serum-free growth medium was added. After 5 days, conditioned medium was harvested (12 liters from 72 roller bottles), centrifuged, sterile filtered, concentrated in a 12 kD molecular weight cutoff Amicon filter, and stored at −70° C.
200 ml of BT20 conditioned media, concentrated as described above from 12 liters and frozen, was thawed, centrifuged at 17,000 rpm in a Sorvall SS34 rotor, and filtered through a 0.45 µm filter to clarify the solution. The 200 ml was pumped through a 2.0 ml CD4-IgG—Protein A (CD4-IgG covalently linked to Protein A through IgG moiety) immunoaffinity precolumn and a 1.0 ml REK7-IgG—Protein A (REK7-IgG covalently linked to Protein A through IgG moiety) immunoaffinity column in tandem with a flow rate of 0.5 ml/min. All chromatography was carried out at 4° C. […] The eluates were brought to pH 7.4 by the addition of 50 mM potassium phosphate, and an aliquot of each was analyzed by sodium dodecycl sulfate (SDS)—polyacrylamide gel electrophoresis (PAGE). […]

binding result: no binding
B1: AL-1 (REK7 ligand) purified from BT20 cell conditioned medium (ligand)
chain: QDPGSKAVADRYAVYWNSSNPRFQRGDYHIDVCINDYLDVFCPHYEDSVPEDKTERYVLYMVNFDGYSACDHTSKGFKRWECNRPHSPNGPLKFSEKFQLFTPFSLGFEFRPGREYFYISSAIPDNGRRSCLKLKVFVRPTNSCMKTIGVHDRVFDVNDKVENSLEPADDTVHESAEPSRGEN
notes: Soluble forms in serum-free conditioned medium of human BT20 cells; The 27,000 and 25,000 Dalton proteins appeared to be proteolytically processed forms of the 28,000 Dalton protein; also called 28,000, 27,000 and 25,000 Dalton proteins; BT20 cell-derived AL-1
